# Publication PMC11488100, “PET imaging of CXCR4 expression using [^18F]AlF-NOTA-QHY-04 for hematologic malignancy and solid tumors” (Theranostics, 2024)
# Bridge positions count the residues as written; N and C are the ends. Square brackets hold non-standard residues; d marks the D form. Peptide text beside a SMILES is read from it. * marks the point of attachment. NOTA = O=C(O)CN1CCN(CC(=O)O)CCN(CC(=O)*)CC1; 2Nal = N[C@@H](Cc1ccc2ccccc2c1)C(=O)O; Pen = CC(C)(S)[C@H](N)C(=O)O; 4Amb = NCc1ccc(C(=O)O)cc1; Ahx = NCCCCCC(=O)O
# Key:
# [1] = format: physicochemical; conditions: pH 7.4
# Experimental: Synthesis of [18F]AlF-NOTA-QHY-04
# Briefly, NOTA-QHY-04 was radiolabeled with [18F]F-, following procedures. 10-20
# GBq [18F]F− produced by medical cyclotron (MINITRACE Cyclotron, GE, USA) was
# captured with a QMA SepPak light cartridge (Waters Corporation, USA) and then eluted
# with 300-500 μL saline (0.9% NaCl). Then, the saline containing [18F]F− was added to
# reaction vial, followed by 6-12 μL AlCl3 (10 mM in 0.1M sodium acetate buffer, pH 4),
# 200 μL acetonitrile (≥ 99.9%, Sigma-Aldrich, USA), and 20-30 μL of NOTA-QHY-04
# (20 mg/mL in metal-free water). The vial was heated for 10 min at 110°C. After cooling,
# the reaction system was diluted with 10 mL of water and was transferred to a Qasis light
# HLB cartridge (Waters Corporation, USA). The cartridge was then washed with 10 mL of
# water to remove the free [18F]F−. Finally, the desired product was eluted and collected
# with 0.6 mL of ethanol. The product was reconstituted in saline and passed through a 0.22
# μm syringe filter (Pall Corporation, USA) into a sterile vial.
# Octanol-water partition coefficient (logD)
# The partition coefficient (logD) of [18F]AlF-NOTA-QHY-04 was determined in a […]
# from each phase were measured for radioactivity using a γ-counter. […]
# repeated three times to ensure the accuracy of the results. The logD was calculated by
# dividing the average radioactivity in the 1 -octanol layer by that in the PBS layer, and the […]
# [2] = target: T1, CXCR4 expression (Homo sapiens, UniProt P61073); conditions: in vivo
# T1 construct: from tissue; host or cells: tumour lesions in cancer patients (DLBCL, SCLC, NSCLC, TNBC, pancreatic carcinoma, glioma, HCC, CRC), in vivo
# Excerpt: Potential eligible patients with newly diagnosed tumor were recruited from Shandong Cancer Hospital and institute from November 2022 to December 2023. A total of 55 patients including 8 tumor types were represented in this study (diffuse large B-cell lymphoma (DLBCL), n = 6; SCLC, n = 30; non-small cell lung cancer (NSCLC), n = 4; triple-negative breast cancer (TNBC), n = 3; pancreatic carcinoma, n = 3; glioma, n = 7; hepatocellular carcinoma (HCC), n = 1; and colorectal carcinoma (CRC), n = 1). The [^18F]AlF-NOTA-QHY-04 imaging study in patients was approved by the Institutional Review Board of Shandong Cancer Hospital and Institute (no. SDZLEC2023-256-02), and the patients provided their informed consent before inclusion in this study. In this prospective observational study, [^18F]AlF-NOTA-QHY-04 PET/CT scans should not affect the normal process of routine examinations and treatment as usual. Patients were enrolled according to the following criteria: (1) newly diagnosed cancer patients with visible tumors on conventional imaging; (2) histopathologically confirmed diagnosis; (3) age ≥ 18 years; (4) Eastern Cooperative Oncology Group (ECOG) performance status score of 0-2; (5) no prior cancer-directed therapy; (6) ability to undergo [^18F]AlF-NOTA-QHY-04 PET/CT scanning before treatment initiation. Specifically, regarding histological confirmation, we followed the standard clinical practice guidelines for each type of cancer [21]-[26], and provided detailed descriptions of our approach for obtaining histological evidence in the supplemental materials. […]
# NaOH. Finally, the cell lysates were collected and measured by an automatic gamma counter (2470 Wizard2, PerkinElmer). […]
# The tumor-bearing mice were injected with 3.70 ± 0.74 MBq of [18F]AlF-NOTA-QHY-04 in about 150 μL saline via the tail vein. […] The PET/CT images were analyzed using OsiriX MD software (Pixmeo SARL, Geneva, Switzerland), and the regions of interest (ROIs) were drawn along the boundary covering the whole tumor volume for quantification of the radioactivity (expressed as %ID/mL). […]
# [3] = in vivo; cited from earlier work
# Excerpt: (Figure 3A and 3B). In contrast, the blood, heart, liver, ...
# T1 sequence (P61073 whole entry): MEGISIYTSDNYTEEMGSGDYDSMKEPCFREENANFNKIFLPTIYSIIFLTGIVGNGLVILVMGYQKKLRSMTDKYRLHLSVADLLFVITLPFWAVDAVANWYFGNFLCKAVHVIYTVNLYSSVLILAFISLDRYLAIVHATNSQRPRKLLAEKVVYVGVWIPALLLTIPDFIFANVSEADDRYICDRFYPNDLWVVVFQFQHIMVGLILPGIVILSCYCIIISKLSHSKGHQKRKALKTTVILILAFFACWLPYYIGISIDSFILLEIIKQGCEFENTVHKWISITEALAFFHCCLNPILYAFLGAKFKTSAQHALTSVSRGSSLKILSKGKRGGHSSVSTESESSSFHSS
smiles,measurement,setting,value
C[C@H](NC(=O)[C@H](CCCNC(=N)N)NC(=O)CCCCCNC(=O)c1ccc(CNC(=O)CN2CCN(CC(=O)O)CCN(CC(=O)O)CC2)cc1)C(=O)N[C@@H]1CSSC(C)(C)[C@@H](C(=O)O)NC(=O)[C@H](Cc2c[nH]cn2)NC(=O)[C@H](Cc2ccc3ccccc3c2)NC(=O)[C@H](CCCNC(=N)N)NC1=O [[^18F]AlF-NOTA-QHY-04] ({NOTA-4Amb-Ahx}-RA[dC]R[2Nal]H[Pen]-OH; disulfide 3-7),logD,[1],-2.21 ± 0.06
same,SUVmean,[2],7.52 ± 3.01
same,average SUVmax,[2],6.29 ± 2.85
same,average T/N (tumor-to-normal brain ratio),[2],62.55 ± 43.24
same,acute radiotoxicity,[3],no acute radiotoxicity
